Measured values as given in US20250381305A1, “METHOD FOR TREATING A PARKINSON'S DISEASE” (SINEUGENE THERAPEUTICS CO., LTD., priority 2022, published 2025).
Substitutions are numbered along the chain they refer to. Names may count otherwise. “Also recorded” adds a separate entry of the source.

B1: C242A: Flag-tagged TRIM72 mutant, cysteine at position 242 substituted by alanine; blocks oligomer formation (protein, UniProt Q1XH17 1-477, looked up, variant C242A)
Tripartite motif-containing …: MSAAPGLLRQELSCPLCLQLFDAPVTAECGHSFCRACLIRVAGEPAADGTVACPCCQAPTRPQALSTNLQLSRLVEGLAQVPQGHCEEHLDPLSIYCEQDRTLVCGVCASLGSHRGHRLLPAAEAQARLKTQLPQQKMQLQEACMRKEKTVAVLEHQLVEVEETVRQFRGAVGEQLGKMRMFLAALESSLDREAERVRGDAGVALRRELSSLNSYLEQLRQMEKVLEEVADKPQTEFLMKFALVTSRLQKILSESPPPARLDIQLPVISDDFKFQVWKKMFRALMPALEELTFDPSSAHPSLVVSSSGRRVECSDQKAPPAGEDTRQFDKAVAVVAQQLLSQGEHYWEVEVGDKPRWALGVMAADASRRGRLHAVPSQGLWLLGLRDGKILEAHVEAKEPRALRTPERPPARIGLYLSFADGVLAFYDASNPDVLTPIFSFHERLPGPVYPIFDVCWHDKGKNAQPLLLVGPEQEQA
modifications: Flag tag
B2: C14A: Flag-tagged TRIM72 mutant, cysteine at position 14 substituted by alanine; E3 ligase inactive (protein, UniProt Q1XH17 1-477, looked up, variant C14A)
Tripartite motif-containing …: B1 Tripartite motif-containing … with C14A, A242C
modifications: Flag tag
B3: Coiled-PRYSPRY: TRIM72 truncation with coiled-coil and PRYSPRY domains, expressed by scAAV9 (probably SEQ ID NO: 11) (protein)
chain: QQKLQLQEACMRKEKSVAVLEHQLVEVEETVRQFRGAVGEQLGKMRVFLAALEGSLDREAERVRGEAGVALRRELGSLNSYLEQLRQMEKVLEEVADKPQTEFLMKYCLVTSRLQKILAESPPPARLDIQLPIISDDFKFQVWRKMFRALMPALEELTFDPSSAHPSLVVSSSGRRVECSEQKAPPAGEDPRQFDKAVAVVAHQQLSEGEHYWEVDVGDKPRWALGVIAAEAPRRGRLHAVPSQGLWLLGLREGKILEAHVEAKEPRALRSPERRPTRIGLYLSFGDGVLSFYDASDADALVPLFAFHERLPRPVYPFFDVCWHDKGKNAQPLLLV
modifications: expressed by scAAV9; TRIM72 coiled-coil domain plus PRYSPRY domain (135-470aa)
B4: TRIM40: other TRIM protein overexpressed in N2a cell line by scAAV9 infection, as comparison (protein, UniProt Q3UWA4 1-246, looked up)
chain: MGSLDKDNQDICPICLDPLKEAVSTDCRHLFCRMCLTQHMDKASVSGILSCPVCRKPCSEGVLGDNYICHTHQKRVRRFCEASGHLLCEECLQSPEHQSHTELSIENAISHYKERLNRRSRKLRKDLGNLQQLKAQEKKMLQALQVDCECHRLRTDLQNQDQTKEQLKALPWHWLDQEDLPEEVAKIFSFSEAVTQLSILVSGLERMAKDLDASTLKDASDLLDRSAPQKLEGLLSRVSPAGPKLS
modifications: full-length
notes: other TRIM protein overexpressed in N2a cell line by scAAV9 infection, as comparison
B5: coiled-coil single domain: TRIM72 truncation with the coiled-coil domain only, 135aa-232aa (probably SEQ ID NO: 5) (protein)
chain: QQKLQLQEACMRKEKSVAVLEHQLVEVEETVRQFRGAVGEQLGKMRVFLAALEGSLDREAERVRGEAGVALRRELGSLNSYLEQLRQMEKVLEEVADK
modifications: human TRIM72 coiled-coil domain (135-232 aa)
B6: TRIM72: full-length TRIM72 protein with Ring finger, B-box, coiled-coil and PRYSPRY domains, overexpressed by lentivirus or scAAV9 (protein, listed as Homo sapiens)
chain: MSAAPGLLHQELSCPLCLQLFDAPVTAECGHSFCRACLGRVAGEPAADGTVLCPCCQAPTRPQALSTNLQLARLVEGLAQVPQGHCEEHLDPLSIYCEQDRALVCGVCASLGSHRGHRLLPAAEAHARLKTQLPQQKLQLQEACMRKEKSVAVLEHQLVEVEETVRQFRGAVGEQLGKMRVFLAALEGSLDREAERVRGEAGVALRRELGSLNSYLEQLRQMEKVLEEVADKPQTEFLMKYCLVTSRLQKILAESPPPARLDIQLPIISDDFKFQVWRKMFRALMPALEELTFDPSSAHPSLVVSSSGRRVECSEQKAPPAGEDPRQFDKAVAVVAHQQLSEGEHYWEVDVGDKPRWALGVIAAEAPRRGRLHAVPSQGLWLLGLREGKILEAHVEAKEPRALRSPERRPTRIGLYLSFGDGVLSFYDASDADALVPLFAFHERLPRPVYPFFDVCWHDKGKNAQPLLLVGPEGAEA
B7: PRYSPRY single domain: TRIM72 truncation with the PRYSPRY domain only, 278aa-470aa (probably SEQ ID NO: 6) (protein)
chain: RKMFRALMPALEELTFDPSSAHPSLVVSSSGRRVECSEQKAPPAGEDPRQFDKAVAVVAHQQLSEGEHYWEVDVGDKPRWALGVIAAEAPRRGRLHAVPSQGLWLLGLREGKILEAHVEAKEPRALRSPERRPTRIGLYLSFGDGVLSFYDASDADALVPLFAFHERLPRPVYPFFDVCWHDKGKNAQPLLLV
modifications: human TRIM72 PRYSPRY domain (278-470 aa)

tested on: 293 FT; experiment: Cell viability after stress challenge, TRIM72 point mutants; assay type: cell-based; conditions: Flag-tagged point mutants vs wildtype; oxidative stress
Description: For TRIM72 stable expression cell line construction, DNA fragments of the series of Flag-tagged TRIM72 mutants or domain deletion or single domain were amplified from the corresponding TRIM72 expression vector by PCR and inserted into pLJM1-EGFP lentiviral vector between BsrGI and EcoRI sites to generate the series of Flag-tagged TRIM72 mutants or domain deletion or single domain fused with EGFP in lentiviral vector.
Cell viability was assessed using CCK-8. Cells were seeded in a 96-well plate at a density of 1.5×10^3cells per well for Arsenite treatment or 7×10^3 cells per well for H2O2 treatment. Arsenite (Sigma) was added into each well at concentration of 0.125 mM, 0.25 mM or 0.5 mM, and washed the cells after 2 hours incubation at 37° C. For H2O2-treatment experiment, scAAV9 infection (estimated multiplicity of infection (MOI): 10,000 vg/cell) was done for 24 hours at 17 hours after cell seeding. Then, H2O2 was added into each well at concentration of 300 μM, and washed the cells after 1 hours incubation at 37° C. […] After another 2 hours of incubation at 37° C., the optical density (OD) value of each well was measured using a microplate reader with an excitation wavelength of 450 nm. The cell viability of 293 FT was calculated. […]
Previous study determined that TRIM72 senses changes in the oxidative environment and forms oligomer complex to complete membrane repair. […]

Molecule	cell viability after stress challenge (protective effect of TRIM72 mutants)
B1	abolished the anti-stress effect of TRIM72; also recorded: blocked TRIM72 protective effect
B2	reserved equal protective effect to wildtype

tested on: N2a cell line; experiment: CCK-8 cell viability after H2O2 treatment, expression by scAAV9 infection; assay type: cell-based; conditions: scAAV9 infection MOI 10,000 vg/cell, H2O2 300 μM, 1 hour
Description: Cell viability was assessed using CCK-8. Cells were seeded in a 96-well plate at a density of 1.5×10^3cells per well for Arsenite treatment or 7×10^3 cells per well for H2O2 treatment. Arsenite (Sigma) was added into each well at concentration of 0.125 mM, 0.25 mM or 0.5 mM, and washed the cells after 2 hours incubation at 37° C. For H2O2-treatment experiment, scAAV9 infection (estimated multiplicity of infection (MOI): 10,000 vg/cell) was done for 24 hours at 17 hours after cell seeding. Then, H2O2 was added into each well at concentration of 300 μM, and washed the cells after 1 hours incubation at 37° C. When the cell has been processed by Arsenite or H202. a total of 10 μL of CCK-8 solution (Yeasen) was added to each well. After another 2 hours of incubation at 37° C., the optical density (OD) value of each well was measured using a microplate reader with an excitation wavelength of 450 nm. The cell viability of 293 FT was calculated. The experiment was repeated at least three times to obtain the mean value.
To further investigate which key domains of TRIM72 protein are necessary to protect neurons, different domain-deleted TRIM72 were constructed and overexpressed in N2a cell line by scAAV9 infection (FIG. 1). CCK-8 was used to measure the cell viability after H2O2 treatment. Indeed, cell viability was decreased after H2O2 treatment (FIG. 10).
CCK-8 was used to measure the cell viability after H2O2 treatment.

Molecule	cell viability under H2O2 stress (protective effect)
B3	sufficient to protect cells from oxidative stress
B4	rather than TRIM40 elicit protective effects from oxidative stress
B5	not the coiled-coil single domain was sufficient to protect cells from oxidative stress
B6	elicit protective effects from oxidative stress
B7	sufficient to protect cells from oxidative stress
